In publication PMC4355727:

Target: FLAG-tagged Rab32 T39N (UniProt Q13637)
Assay: co-IP

Chain of UniProt Q13637 (Q13637 whole entry T39N): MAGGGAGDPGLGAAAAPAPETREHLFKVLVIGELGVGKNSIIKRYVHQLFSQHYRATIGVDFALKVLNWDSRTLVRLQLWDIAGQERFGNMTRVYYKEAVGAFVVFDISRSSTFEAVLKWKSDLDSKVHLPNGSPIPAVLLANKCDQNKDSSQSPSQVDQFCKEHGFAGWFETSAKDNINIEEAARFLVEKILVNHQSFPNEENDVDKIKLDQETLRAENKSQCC

HA-tagged Drp1 S656A (natural protein)
fraction of the interaction detected with active Rab32 Q85L: 0.25
